The results in this text go back to publication PMC12102759.

To fix the notation:
B1: PIP5K1C peptide 642-657 (Phosphatidylinositol 4-phosphate 5-kinase type-1 gamma), 16-mer library wild type / TLN1 PTB (TLN1 Phosphotyrosine-binding (PTB) domain, residues 309-401) (parent)
chain 1: TDERSWVYSPLHYSAQ
chain 2: GVSFFLVKEKMKGKNKLVPRLLGITKECVMRVDEKTKEVIQEWNLTNIKRWAASPKSFTLDFGDYQDGYYSVQTTEGEQIAQLIAGYIDIILK
B2: ATXN2 peptide 911-926 (Ataxin-2), 16-mer library wild type / PABPC1 PABC (PABPC1 PABC domain, residues 544-623) (parent)
chain 1: KSTLNPNAKEFNPRSF
chain 2: PLTASMLASAPPQEQKQMLGERLFPLIQAMHPTLAGKITGMLLEIDNSELLHMLESPESLRSKVDEAVAVLQAHQAKEAA
B3: RNF115 peptide 69-84 (E3 ubiquitin-protein ligase RNF115), 16-mer library wild type / MDM2 SWIB (MDM2 SWIB/MDM2 domain, residues 17-125) (parent)
chain 1: THFAELWGHLDHTMFF
chain 2: SQIPASEQETLVRPKPLLLKLLKSVGAQKDTYTMKEVLFYLGQYIMTKRLYDEKQQHIVYCSNDLLGDLFGVPSFSVKEHRKIYTMIYRNLVVVNQQESSDSGTSVSEN

One test covers variants of B1. The experiment in a line: proteomic peptide phage display deep mutational scan (ProP-PD DMS): M13 P8 16-mer library selected against immobilised GST-tagged bait for four days (rounds), NGS of the eluted pools per day and pseudo-replica. Particulars: with TLN1 PTB (TLN1 Phosphotyrosine-binding (PTB) domain, residues 309-401); bait immobilised on MaxiSorp plates (10 µg), library pre-cleared on GST, 2 h binding at 4 °C, five washes; one round per day, days 1-4; value from days 2 and 3; keep out of graded; scale: average fractional NGS count over selection days 2 and 3.
In the case of chain 1 L11D, the screen value was found to be 0.

With chain 1 L11S, the screen value worked out at 3.05e-05. For chain 1 L11K, the screen value is 8.99e-05. As to chain 1 L11N, the screen value is 8.93e-05. Turning to chain 1 L11Q, the screen value amounted to 2.8e-05. On to chain 1 W6H, for which the screen value was found to be 0. In the case of chain 1 W6Q, the screen value turned out to be 0. For the variant chain 1 W6G, the screen value is 3.45e-05. Turning to chain 1 W6D, the screen value is 0.

Turning to chain 1 W6A, the screen value was 2.49e-05. Still for that read-out and setting: then chain 1 A15K, with 0; and chain 1 A15Y, with 9.95e-05. With chain 1 D2K, the screen value was found to be 0.000108.

For the variant chain 1 P10W, the screen value was determined as 8.28e-05. As to chain 1 R4I, the screen value turned out to be 3.79e-05. Regarding chain 1 S9V, the screen value turned out to be 3.45e-05. As to chain 1 S9W, the screen value came out at 0. Consider chain 1 S9E, for which the screen value is 6.87e-05. The same measure, in the same setting: then chain 1 S9L, with 0. As to chain 1 S9Y, the screen value turned out to be 5.79e-05.

Regarding chain 1 S9Q, the screen value was found to be 4.86e-05. Turning to chain 1 S9K, the screen value stood at 0.

The variants in another test derive from B2. The description is as above. Particulars: with PABPC1 PABC (PABPC1 PABC domain, residues 544-623); bait immobilised on MaxiSorp plates (10 µg), library pre-cleared on GST, 2 h binding at 4 °C, five washes; one round per day, days 1-4; value from days 2 and 3; scale: average fractional NGS count over selection days 2 and 3.
chain 1 P13Y: the screen value was determined as 0.000164. Take chain 1 P13V: the screen value turned out to be 0.031.

Take chain 1 P13T: the screen value was 1.02e-05. For the variant chain 1 P13W, the screen value is 0.000637. Same read-out and setting: then chain 1 P13L, with 0.00026.

Take chain 1 P13D: the screen value was 1.92e-05.

Take chain 1 P13F: the screen value amounted to 0.00012. chain 1 P13M: the screen value was 0. chain 1 P13N: the screen value turned out to be 0.000178. chain 1 P13E: the screen value amounted to 0.000246. As for chain 1 P13G, the screen value was 0.00243. On to chain 1 P13A, for which the screen value came out at 0.000212. Same read-out and setting: then chain 1 P13H, with 0. chain 1 P13Q: the screen value worked out at 0.00338.

Take chain 1 P13I: the screen value worked out at 0.000517. For chain 1 T3H, the screen value was determined as 8.48e-05. As for chain 1 T3W, the screen value is 0.000105.

As for chain 1 T3F, the screen value was 0.000481. For the variant chain 1 T3E, the screen value was determined as 0.00159. Still for that read-out and setting: then chain 1 T3K, with 0; and chain 1 T3Y, with 3.57e-05. Take chain 1 T3G: the screen value worked out at 0.000528. The same measure, in the same setting: then chain 1 T3Q, with 0; and chain 1 T3S, with 0; and chain 1 T3I, with 0.00112.

Regarding chain 1 T3V, the screen value turned out to be 0.00143. As to chain 1 T3M, the screen value was found to be 0.000543. With chain 1 S2T, the screen value amounted to 0.00018. Same read-out and setting: then chain 1 S2G, with 0.000237; and chain 1 S2L, with 5.2e-05. For chain 1 S2P, the screen value was 0.00164. Regarding chain 1 S2Y, the screen value is 0.00178. In the case of chain 1 S2H, the screen value stood at 0.00026.

As for chain 1 S2A, the screen value was determined as 0.000338. As to chain 1 S2I, the screen value stood at 0.000118.

As for chain 1 S2M, the screen value is 0.00187. Same read-out and setting: then chain 1 S2D, with 0.000114. The same measure, in the same setting: then chain 1 S2V, with 0.000881. For chain 1 S2N, the screen value amounted to 0. The same measure, in the same setting: then chain 1 S2E, with 0.000105; and chain 1 S2F, with 0.000554.

Consider chain 1 N7F, for which the screen value came out at 0.00073. With chain 1 N7W, the screen value was determined as 0.

Regarding chain 1 N7R, the screen value was found to be 5.23e-05. As to chain 1 N7I, the screen value is 0.00577. As for chain 1 N7Q, the screen value was found to be 0.000449. Turning to chain 1 N7L, the screen value is 0.000441. chain 1 N7H: the screen value amounted to 0.000328.

On to chain 1 N7Y, for which the screen value was found to be 5.67e-05.

Regarding chain 1 N7G, the screen value was determined as 0.

chain 1 N7T: the screen value turned out to be 1.57e-05. As to chain 1 N7V, the screen value came to 0.000181. For the variant chain 1 N7M, the screen value was determined as 0.000289. On to chain 1 N7S, for which the screen value was 0.000455. On the same count and under the same terms, then chain 1 N12V, with 0.00267. On to chain 1 N12S, for which the screen value amounted to 0.000112.

Consider chain 1 N12W, for which the screen value was 0.00202. Regarding chain 1 N12D, the screen value was found to be 0.00012. For chain 1 N12G, the screen value was determined as 0.000277. Turning to chain 1 N12K, the screen value stood at 0.000122. For the variant chain 1 N12E, the screen value turned out to be 0.000774. chain 1 N12L: the screen value stood at 0. For chain 1 N12A, the screen value was 0.00161. Turning to chain 1 N12Q, the screen value came out at 0.000365.

Consider chain 1 N12T, for which the screen value turned out to be 0.000331.

Consider chain 1 N12F, for which the screen value is 0.000678. As to chain 1 N12M, the screen value was found to be 0.00106. Regarding chain 1 N12H, the screen value is 0.000518. On the same count and under the same terms, then chain 1 N12I, with 0.000365.

Regarding chain 1 N12P, the screen value came out at 0. Regarding chain 1 R14P, the screen value amounted to 0.00013. For the variant chain 1 R14M, the screen value was found to be 9.46e-05. As for chain 1 R14Q, the screen value stood at 0.00156. On the same count and under the same terms, the result for chain 1 R14Y reads 0.000722; that for chain 1 R14H, 0.000471; that for chain 1 R14W, 0.00286.

With chain 1 R14V, the screen value stood at 0.000569. The same measure, in the same setting: then chain 1 R14A, with 0.00158; and chain 1 R14N, with 0.000117. Regarding chain 1 R14S, the screen value worked out at 0.00103. chain 1 R14F: the screen value was found to be 0.000523.

Turning to chain 1 R14T, the screen value was 0.00309. For the variant chain 1 R14G, the screen value amounted to 0.0017.

For the variant chain 1 R14E, the screen value turned out to be 0.000187.

For chain 1 S15H, the screen value amounted to 0.000677. As for chain 1 S15T, the screen value was determined as 4.17e-05. Same read-out and setting: the result for chain 1 S15V reads 0.000546.

Consider chain 1 S15I, for which the screen value was 0.000221. As for chain 1 S15N, the screen value is 0.000583.

For chain 1 S15F, the screen value turned out to be 0.000136. As for chain 1 S15Q, the screen value was 0. For the variant chain 1 S15Y, the screen value is 0.000151.

chain 1 S15G: the screen value amounted to 0. Same read-out and setting: the result for chain 1 S15A reads 0.000153. Consider chain 1 S15L, for which the screen value stood at 0.00242. Take chain 1 S15W: the screen value was found to be 5.73e-05. The same measure, in the same setting: then chain 1 S15D, with 0; and chain 1 S15E, with 0.000122. The same measure, in the same setting: the result for chain 1 S15P reads 0.000243; that for chain 1 P6L, 0.000389. In the case of chain 1 P6A, the screen value worked out at 0. For chain 1 P6Y, the screen value was 0. On the same count and under the same terms, then chain 1 P6V, with 0.00101.

Turning to chain 1 P6H, the screen value was determined as 4.64e-05. Regarding chain 1 P6I, the screen value stood at 0.000875.

Variants of B3 are the subject of another test. The description is as above. To be noted: with MDM2 SWIB (MDM2 SWIB/MDM2 domain, residues 17-125); bait immobilised on MaxiSorp plates (10 µg), library pre-cleared on GST, 2 h binding at 4 °C, five washes; one round per day, days 1-4; value from days 2 and 3; keep out of graded; scale: average fractional NGS count over selection days 2 and 3.
On to chain 1 M14I, for which the screen value amounted to 5.94e-05. Same read-out and setting: then chain 1 M14K, with 7.54e-05; and chain 1 M14R, with 6.33e-05. Regarding chain 1 F3M, the screen value was 0. chain 1 F3K: the screen value was determined as 0.

Turning to chain 1 F3P, the screen value is 0.000115. On to chain 1 G8L, for which the screen value came to 6.83e-05. Still for that read-out and setting: the result for chain 1 G8I reads 3.49e-05. As to chain 1 H9P, the screen value was 0. Consider chain 1 H9L, for which the screen value turned out to be 3.74e-05.

As for chain 1 D11V, the screen value amounted to 5.15e-05. For chain 1 L6T, the screen value was found to be 0. Same read-out and setting: the result for chain 1 L6S reads 0. For the variant chain 1 H12Y, the screen value amounted to 4.94e-05.

Take chain 1 H12R: the screen value came to 4.65e-05. In the case of chain 1 H12W, the screen value is 3.9e-05. The same measure, in the same setting: then chain 1 T13F, with 3.43e-05; and chain 1 T13E, with 4.86e-05. For the variant chain 1 E5K, the screen value is 0. Still for that read-out and setting: the result for chain 1 E5I reads 1.29e-05.

Regarding chain 1 E5L, the screen value came out at 5.37e-05.

On to chain 1 E5M, for which the screen value came out at 4.31e-05. For the variant chain 1 E5P, the screen value turned out to be 0.

With chain 1 E5F, the screen value was found to be 4.65e-05.

Regarding chain 1 E5G, the screen value is 0.00012.

On to chain 1 W7E, for which the screen value was determined as 0.

As to chain 1 W7D, the screen value came out at 0. On to chain 1 W7K, for which the screen value was 0.

For the variant chain 1 W7N, the screen value worked out at 0. In the case of chain 1 A4R, the screen value was 5.64e-05. Same read-out and setting: the result for chain 1 T1K reads 5.86e-05; that for chain 1 T1R, 1.6e-05. With chain 1 T1E, the screen value turned out to be 8.39e-05. The same measure, in the same setting: then chain 1 F15E, with 5.35e-05; and chain 1 L10P, with 0; and chain 1 L10A, with 0. For chain 1 L10Y, the screen value was 0. For chain 1 L10W, the screen value was 0.000123.

Turning to chain 1 L10E, the screen value stood at 0. For the variant chain 1 L10G, the screen value worked out at 0.
